The target of this assay is T1, Protein Interacting with C Kinase-1 (PICK1), purified recombinant (UniProt Q9EP80 1-416).
T1 construct: also called purified PICK1
Briefly: fluorescence polarization competition, tracer 5-FAM-TAT-C5, purified PICK1. A general note: Fluorescence polarisation rises when a labelled molecule tumbles more slowly, as on binding a larger partner.

Where no end group is shown, it is not given here.

T1 sequence (Q9EP80 whole entry): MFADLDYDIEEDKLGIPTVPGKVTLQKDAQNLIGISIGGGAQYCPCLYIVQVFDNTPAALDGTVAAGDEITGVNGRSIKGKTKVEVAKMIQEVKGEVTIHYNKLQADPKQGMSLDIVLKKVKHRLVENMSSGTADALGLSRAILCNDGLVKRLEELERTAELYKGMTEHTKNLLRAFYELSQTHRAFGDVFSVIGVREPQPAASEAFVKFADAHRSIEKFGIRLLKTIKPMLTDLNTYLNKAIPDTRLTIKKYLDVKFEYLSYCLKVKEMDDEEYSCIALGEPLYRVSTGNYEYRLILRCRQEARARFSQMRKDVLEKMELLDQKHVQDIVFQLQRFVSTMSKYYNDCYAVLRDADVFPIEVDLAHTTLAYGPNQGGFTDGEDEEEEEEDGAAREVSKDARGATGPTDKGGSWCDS

B1: MAP-P4-(C5)2 (peptide)
peptide 1: HWLKV
peptide 2: KLALKLALKALKAALKLA
modifications: not fully specified (N-terminus); also: dimer: two HWLKV copies joined at N-termini by NPEG4 linker, MAP peptide conjugated to the NPEG4 linker
notes: also called MAP-peptide
Turning to B1, the “Fold affinity change (vs TAT-P4-(C5)2)” value was 0.8 fold and the Ki was determined as 5.1 nM.

In general, Ki refers to the dissociation constant of the complex between target and ligand, obtained from inhibition or displacement.

For the origin of these results see patent publication US20250215052A1 (UNIVERSITY OF COPENHAGEN, published 2025).
